From US11433139B2, “Peptide vaccines against interleukin-31” (Zoetis Services LLC, priority 2018, dated 2022)

Key:
wildtype feline IL-31 = assay: Indirect ELISA, binding to wildtype feline IL-31
Experimental: (§1) Mice and dogs were immunized with recombinant canine IL-31 (SEQ ID No. 155) for the purpose of identifying antibodies. Serum antibody titers from immunized animals were determined using an enzyme linked immunosorbent assay (ELISA). Canine or feline IL-31 (50 ng/well) was immobilized to polystyrene microplates and used as a capture antigen. Serum from immunized animals was diluted in phosphate buffered saline with 0.05% tween-20 (PBST). The presence of anti-IL-31 antibodies was detected with an appropriate secondary HRP labeled antibody. Following addition of a chromogenic substrate (SureBlue Reserve TMB 1-Component Microwell Peroxidase Substrate, KPL, Inc., Gaithersburg, Md.) and a ten minute incubation at room temperature (RT) the reaction was stopped with the addition of […] of 0.1 N HCl. The absorbance of each well was determined at an optical density (OD) of 450 nm. Antibodies were selected for their ability to bind canine and feline IL-31 using an ELISA. In some cases, further characterization was performed at the time of selection using an ELISA with a mutant form of the feline IL-31 protein as a capture antigen. Cells producing antibodies with desired binding and inhibitory properties were chosen for sequence analysis of RNA transcripts representing the variable heavy (VH) and variable light (VL) IgG chains.
(§2) For the indirect ELISA method, antibody binding to wildtype and feline IL-31 15H05 mutant proteins was assessed. […] In comparison, the 11E12 antibody bound to the wild-type feline IL-31 and its binding was not impacted by the mutations in the 15H05 epitope region as evidenced by the data in FIG. 4. To confirm binding, biacore analysis was performed using canine, feline, equine, human, feline 15H05 mutant, and feline 11E12 mutant IL-31 proteins as surfaces and a single test concentration of antibody. Similar to ELISA observations, all antibodies tested bound to wildtype feline IL-31. In agreement with the data described above in this section, mouse antibodies 11 E12 and 15H05 both bound to canine and feline IL-31 surfaces. […] From this group of nine fully canine antibodies, only ZIL1 and ZIL9 cross-reacted with equine IL-31. Of note, antibody 15H05 was the only one of all assayed herein that bound to canine, feline, and equine IL-31 indicating some level of epitope conservation across the three species. In contrast, none of the antibodies described herein bound to human IL-31. Additional biacore surfaces were used to verify ELISA observations showing differential binding of antibodies to wildtype feline IL-31 and two proteins with mutations in the 15H05 (15H05 mutant) or 11 E12 (11E12 mutant) epitopes. […] Differing results can be attributed to differences in the two assay methodologies.
(§3) To determine the impact of mAbs 11E12 and 15H05 ability to bind these mutant forms of feline IL-31, an indirect ELISA was run using the mutants directly coated on to an immunoassay plate. […] The minor attenuation of mAb 15H05s binding to the 11E12 mutant is likely due to translational effects of the mutations from movement of the two front helices effecting the 15H05 binding site. The mutations designed to affect mAb 15H05s binding (mutant 15H05) show a complete loss of mAb 1505s ability to bind this IL-31 mutant by ELISA. Unlike the 11E12 mutant, the changes in the random coil recognized by mAb 15H05 (mutant 15H05) had no impact on mAb 11E12 binding further supporting the distinction between the two epitopes (FIG. 6C).

[1] = test system: feline IL-31 15H05 mutant; assay: Indirect ELISA, binding to feline IL-31 15H05 mutant; details: compared with wildtype
Experimental: as §1, §2, §3

canine IL-31 [2] = assay: Biacore binding, single test concentration of antibody, canine IL-31 surface
Experimental: (§4) For the indirect ELISA, binding (ELISA OD) to wildtype feline IL-31 and a feline IL-31 15H05 mutant which had mutations in the monoclonal antibody 15H05 epitope region was assessed. To confirm binding, biacore analysis was performed using canine, feline, equine, human, the feline 15H05 mutant, and feline 11E12 mutant IL-31 proteins as surfaces and a single test concentration of antibody. The feline IL-31 11E12 mutant had mutations in the monoclonal antibody 11E12 epitope region.
as §2

[3] = test system: feline 15H05 mutant IL-31; assay: Biacore binding, single test concentration of antibody, feline 15H05 mutant IL-31 surface
Experimental: as §4, §2

[4] = test system: feline 11E12 mutant IL-31; assay: Biacore binding, single test concentration of antibody, feline 11E12 mutant IL-31 surface
Experimental: as §4, §2

canine IL-31 [5] = assay: Affinity of anti-IL-31 antibodies by surface plasmon resonance (Biacore), canine IL-31 surface; format: binding; details: IL-31 conjugated to the surface (FIG. 2)
Experimental: (§5) The affinity with which candidate mAbs bind canine and feline IL-31 was determined using surface plasmon resonance (SPR) on a Biacore system (Biocore Life Sciences (GE Healthcare), Uppsala, Sweden). To avoid affinity differences associated with differential surface preparation that can occur when immobilizing antibodies to surfaces; a strategy was employed where IL-31 was directly conjugated to the surface. Immobilization was obtained by amine coupling 5 μg/mL IL-31 using N-hydroxysuccinimide (NHS)/1-Ethyl-3-(3-dimethylaminopropyl) carbodiimide (EDC) chemistry. Chips were quenched with ethanolamine and the affinity with which all candidate mAbs bound to the immobilized IL-31 was evaluated. All curves were fit to a 1:1 model. Affinity constants (KD) less than 1×10^−11M (1E-11 M) are below the lower limit of quantitation of detection for the instrument. Results for affinity measurements are described herein.

feline IL-31 [6] = assay: IL-31 induced pruritus model in cats, antibody pre-bound to feline IL-31; format: in vivo, cat; details: 0.5 mg/kg antibody pre-bound with 0.5 μg/kg feline IL-31, days 0, 7, 21
Experimental: To test the preliminary efficacy of mouse: feline 11E12 chimera, mouse: feline 15H05 chimera, and felinized 11 E12 (Feline 11E12 1.1), an IL-31 induced pruritus model in cats was developed. Following an intravenous dose of 0.5 μg/kg feline IL-31 (SEQ ID NO: 159; Feline_IL-31_E_coli), the corresponding nucleotide sequence for which is (SEQ ID NO: 160; Feline_IL-31_E_coli), cats will portray transient pruritic behavior that includes (but is not limited to) licking, chewing, scratching, and head or body shaking. Rubbing up against the cage was not considered a pruritic activity. Pruritic observations take place by a trained investigator for 30 minutes prior to administration of the IL-31 protein and for 1 hour following. For this study, a baseline challenge with feline IL-31 was performed up to 1 month prior to dosing with antibody. On day zero, a 0.5 mg/kg antibody dose was combined with 0.5 μg/kg of feline IL-31 at room temperature for 60 minutes prior to injecting the pre-bound complex into each animal. A “no mAb” control was included for a control. The dose of mAb represents a gross molar excess of antibody to cytokine. Pruritic activity was monitored as described on days 0, 7, and 21.
Target sequence in this assay (as listed by the source): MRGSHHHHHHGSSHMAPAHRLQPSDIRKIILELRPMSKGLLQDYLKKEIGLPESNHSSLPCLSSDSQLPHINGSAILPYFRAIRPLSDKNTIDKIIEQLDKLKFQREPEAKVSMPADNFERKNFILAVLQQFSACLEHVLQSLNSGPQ

feline IL-31 [7] = assay: Affinity of anti-IL-31 antibodies by surface plasmon resonance (Biacore), feline IL-31 surface; format: binding; details: IL-31 conjugated to the surface (FIG. 2)
Experimental: as §5
Target sequence in this assay (as listed by the source): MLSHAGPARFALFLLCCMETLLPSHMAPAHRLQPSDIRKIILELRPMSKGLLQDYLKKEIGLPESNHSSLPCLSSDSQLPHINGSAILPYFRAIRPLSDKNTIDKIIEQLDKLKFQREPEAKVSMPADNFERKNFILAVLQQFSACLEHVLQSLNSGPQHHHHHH

canine IL-31, sequence (as listed by the source): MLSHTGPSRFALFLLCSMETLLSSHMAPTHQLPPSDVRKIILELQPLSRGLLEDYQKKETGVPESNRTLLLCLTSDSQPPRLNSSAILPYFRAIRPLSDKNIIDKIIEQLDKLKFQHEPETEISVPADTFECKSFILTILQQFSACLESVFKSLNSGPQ
feline IL-31 15H05 mutant, sequence (as listed by the source, change not shown): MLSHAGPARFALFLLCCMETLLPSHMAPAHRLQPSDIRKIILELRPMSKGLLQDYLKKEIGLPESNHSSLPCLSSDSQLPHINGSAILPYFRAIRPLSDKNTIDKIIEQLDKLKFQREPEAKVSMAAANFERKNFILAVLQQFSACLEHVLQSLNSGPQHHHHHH
feline 11E12 mutant IL-31, sequence (as listed by the source, change not shown): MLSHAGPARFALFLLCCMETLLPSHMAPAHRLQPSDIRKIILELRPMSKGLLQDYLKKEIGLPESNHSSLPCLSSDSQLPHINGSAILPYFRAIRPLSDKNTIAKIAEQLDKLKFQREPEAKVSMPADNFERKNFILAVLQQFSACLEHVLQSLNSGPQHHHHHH

Molecule | binding to wildtype feline IL-31 (ELISA) (wildtype feline IL-31) | binding to feline IL-31 15H05 mutant (ELISA) [1] | binding to canine IL-31 (Biacore) (canine IL-31 [2]) | binding to feline 15H05 mutant IL-31 (Biacore) [3] | binding to feline 11E12 mutant IL-31 (Biacore) [4] | affinity (KD) to canine IL-31 (canine IL-31 [5]) | pruritus scores compared to placebo control (feline IL-31 [6]) | affinity (KD) to feline IL-31 (feline IL-31 [7])
ZIL69: fully canine anti IL-31 antibody, VH SEQ ID NO: 91, VL SEQ ID NO: 93 (antibody, listed as Canis familiaris, V domains shown) VH: EVQLVESGGDLVKPAGSLRLSCVASGFTFSSYAMKWVRQAPGKGLQWVATINNDGTRTGYADAVRGRFTISKDNAKNTLYLQMDSLRADDTAVYYCTKGNAESGCTGDHCPPYWGQGTLVTVSS VL: SSVLTQPPSVSVSLGQTATISCSGESLNKYYAQWFQQKAGQAPVLVIYKDTERPSGIPDRFSGSSAGNTHTLTISGARAEDEADYYCESAVSSETNVFGSGTQLTVL | capable of binding | binding was impacted | partial canine binding | – | – | – | – | –
ZIL171: fully canine anti IL-31 antibody, VH SEQ ID NO: 107, VL SEQ ID NO: 109 (antibody, listed as Canis familiaris, V domains shown) VH: EVQLVESGGDLVKPAGSLRLSCVASGFTFRTYVMNWVRQAPGKGLQWVASINGGGSSPTYADAVRGRFTVSRDNAQNSLFLQMNSLRAEDTAIYFCVVSMVGPFDYWGHGTLVTVSS VL: SSVLTQPPSVSVSLGQTATISCSGKSLSYYYAQWFQQKAGQAPVLVIYKDTERPSGIPDRFSGSSSGNTHTLTISGARAEDEADYYCESAVSSDTIVFGGGTHLTVL | capable of binding | binding was impacted | – | partially affected | – | – | – | –
ZIL159: fully canine anti IL-31 antibody, VH SEQ ID NO: 103, VL SEQ ID NO: 105 (antibody, listed as Canis familiaris, V domains shown) VH: EVQLVESGGDLVKPAGSLRLSCVASGFTFSSYVMTWVRQAPGKGLQWVAGINSEGSRTAYADAVKGRFTISRDNAKNTLYLQIDSLRAEDTAIYYCATGDIVATGTSYWGQGTLVTVSS VL: SNVLTQPPSVSVSLGQTATISCSGETLNRFYTQWFQQKAGQAPVLVIYKDTERPSGIPDRFSGSSSGNIHTLTISGARAEDEAAYYCKSAVSIDVGVFGGGTHLTVF | capable of binding | binding was impacted | dual binding property | – | impacted | – | – | –
ZIL94: fully canine anti IL-31 antibody, VH SEQ ID NO: 95, VL SEQ ID NO: 97 (antibody, listed as Canis familiaris, V domains shown) VH: EVQLVDSGGDLVKPGGSLRLSCVASGFTFSTYFMSWVRQAPGRGLQWVALISSDGSGTYYADAVKGRFTISRDNAKNTLYLQMNSLRAEDTAMYYCAIFWRAFNDWGQGTLVTVSS VL: QTVVIQEPSLSVSPGGTVTLTCGLNSGSVSTSNYPGWYQQTRGRTPRTIIYDTGSRPSGVPNRFSGSISGNKAALTITGAQPEDEADYYCSLYTDSDILVFGGGTHLTVL | capable of binding | binding was impacted | dual binding property | – | – | – | – | –
ZIL8: fully canine anti IL-31 antibody, VH SEQ ID NO: 79, VL SEQ ID NO: 81 (antibody, listed as Canis familiaris, V domains shown) VH: EVQLVESGGDLVKPAGSLRLSCVASGFTFSDYAMSWVRQAPGRGLQWVAGIDSVGSGTSYADAVKGRFTISRDDAKNTLYLQMFNLRAEDTAIYYCASGFPGSFEHWGQGTLVTVSS VL: QSVLTQPASVSGSLGQKVTISCTGSSSNIGSGYVGWYQQLPGTGPRTLIYYNSDRPSGVPDRFSGSRSGTTATLTISGLQAEDEADYYCSVYDRTFNAVFGGGT | capable of binding | binding was impacted | – | – | impacted | – | – | –
mouse: feline 11E12 chimera: mouse 11E12 variable regions on feline IgG constant regions (antibody) heavy: QVQLQQSGAELVKPGASVKLSCKASGYTFKYYDINWVRQRPEQGLEWIGWIFPGDGGTKYNETFKGKATLTTDKSSSTAYMQLSRLTSEDSAVYFCARGGTSVIRDAMDYWGQGTSVTVSSASTTAPSVFPLAPSCGTTSGATVALACLVLGYFPEPVTVSWNSGALTSGVHTFPAVLQASGLYSLSSMVTVPSSRWLSDTFTCNVAHPPSNTKVDKTVRKTDHPPGPKPCDCPKCPPPEAAGAPSIFIFPPKPKDTLSISRTPEVTCLVVDLGPDDSDVQITWFVDNTQVYTAKTSPREEQFNSTYRVVSVLPILHQDWLKGKEFKCKVNSKSLPSPIERTISKAKGQPHEPQVYVLPPAQEELSRNKVSVTCLIKSFHPPDIAVEWEITGQPEPENNYRTTPPQLDSDGTYFVYSKLSVDRSHWQRGNTYTCSVSHEALHSHHTQKSLTQSPGK light: DIVLTQSPASLAVSLGQRATISCRASESVDNYGISFMHWYQQKPGQPPKLLIYRASNLESGIPARFSGSGSRTDFTLTINPVETDDVATYYCQQSNKDPLTFGAGTKLELKRSDAQPSVFLFQPSLDELHTGSASIVCILNDFYPKEVNVKWKVDGVVQNKGIQESTTEQNSKDSTYSLSSTLTMSSTEYQSHEKFSCEVTHKSLASTLVKSFQRSECQRE | – | – | – | – | – | slightly superior | did not achieve a significant reduction in pruritus at any timepoint | slightly superior
